These results are taken from patent publication US20020106676A1 (MYRIAD GENETICS, published 2002).

The assay addresses T1, PN7740, amino acids 27-321 (prey of Example 34) (Saccharomyces cerevisiae; human, UniProt P04386 768-881).
T1 construct: also called novel protein PN7740
T1 sequence: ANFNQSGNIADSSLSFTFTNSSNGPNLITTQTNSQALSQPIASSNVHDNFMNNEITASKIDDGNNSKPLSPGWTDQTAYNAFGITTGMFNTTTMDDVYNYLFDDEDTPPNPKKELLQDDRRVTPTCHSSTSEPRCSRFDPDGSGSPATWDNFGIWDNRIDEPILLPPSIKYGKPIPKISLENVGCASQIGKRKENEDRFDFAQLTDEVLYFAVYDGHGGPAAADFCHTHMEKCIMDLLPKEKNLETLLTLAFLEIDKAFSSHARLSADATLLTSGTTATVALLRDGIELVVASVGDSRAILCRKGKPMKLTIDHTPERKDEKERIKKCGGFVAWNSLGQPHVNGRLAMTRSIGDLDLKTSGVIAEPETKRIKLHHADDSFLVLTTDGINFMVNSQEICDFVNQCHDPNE
The assay is described as follows: yeast two-hybrid search.

Description: The resulting diploid yeast cells expressing proteins interacting with the bait protein were selected for the ability to synthesize tryptophan, leucine, histidine, and adenine. DNA was prepared from each clone, transformed by electroporation into E. coli strain KC8 (Clontech KC8 electrocompetent cells, Catalog No. C2023- 1), and the cells were selected on ampicillin-containing plates in the absence of either tryptophane (selection for the bait plasmid) or leucine (selection for the library plasmid). DNA for both plasmids was prepared and sequenced by the dideoxynucleotide chain termination method. […] Clones that gave a positive signal in the p-galactosidase assay were considered false-positives and discarded. Plasmids for the remaining clones were transformed into yeast cells together with the original bait plasmid. Clones that gave a positive signal in the p-galactosidase assay were considered true positives.

B1: PSD95, amino acids 149-255 (bait of Example 34) (other, UniProt P04386 1-147, looked up)
chain: MKLLSSIEQACDICRLKKLKCSKEKPKCAKCLKNNWECRYSPKTKRSPLTRAHLTEVESRLERLEQLFLLIFPREDLDMILKMDSLQDIKALLTGLFVQDNVNKDAVTDRLASVETDMPLTLRQHRISATSSSEESSNKGQRQLTVSMRRKPPAEKVMEIKLIKGPKGLGFSIAGGVGNQHIPGDNSIYVTKIIEGGAAHKDGRLQIGDKILAVNSVGLEDVMHEDAVAALKNTYDVVYLKVAKPSNAYLSDSY
notes: also called DLG4; SAP-90
In the case of B1, the binding result is given as “binds”.
